Laboratory results reported in paper doi:10.1101/634915 (bioRxiv, 2019).

Molecular target: RlucII-Rab7A (UniProt P51149 1-207)
Assay: FRET or BRET

Chain of RlucII-Rab7A (P51149 whole entry): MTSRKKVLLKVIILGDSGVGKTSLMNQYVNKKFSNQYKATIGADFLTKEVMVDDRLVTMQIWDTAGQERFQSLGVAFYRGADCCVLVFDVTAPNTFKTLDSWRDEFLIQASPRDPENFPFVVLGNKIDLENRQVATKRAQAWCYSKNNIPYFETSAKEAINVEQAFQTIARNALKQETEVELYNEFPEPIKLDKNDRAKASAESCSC

B1: PLEKHM1-GFP10 (natural protein, UniProt Q9Y4G2 1-1056, looked up)
chain: MLSVVENGLDPQAAIPVIKKKLVGSVKALQKQYVSLDTVVTSEDGDANTMCSALEAVFIHGLHAKHIRAEAGGKRKKSAHQKPLPQPVFWPLLKAVTHKHIISELEHLTFVNTDVGRCRAWLRLALNDGLMECYLKLLLQEQARLHEYYQPTALLRDAEEGEFLLSFLQGLTSLSFELSYKSAILNEWTLTPLALSGLCPLSELDPLSTSGAELQRKESLDSISHSSGSEDIEVHHSGHKIRRNQKLTASSLSLDTASSSQLSCSLNSDSCLLQENGSKSPDHCEEPMSCDSDLGTANAEDSDRSLQEVLLEFSKAQVNSVPTNGLSQETEIPTPQASLSLHGLNTSTYLHCEAPAEPLPAQAASGTQDGVHVQEPRPQAPSPLDLQQPVESTSGQQPSSTVSETAREVGQGNGLQKAQAHDGAGLKLVVSSPTSPKNKSWISEDDFYRPSREQPLESASDHPIASYRGTPGSRPGLHRHFSQEPRKNCSLGALDQACVPSPGRRQAQAAPSQGHKSFRVVHRRQMGLSNPFRGLMKLGTVERRGAMGIWKELFCELSPLEFRLYLSNEEHTCVENCSLLRCESVGPAHSDGRFELVFSGKKLALRASSQDEAEDWLDRVREALQKVRPQQEDEWVNVQYPDQPEEPPEAPQGCLSPSDLLSEPAALQGTQFDWSSAQVPEPDAIKESLLYLYMDRTWMPYIFSLSLEALKCFRIRNNEKMLSDSHGVETIRDILPDTSLGGPSFFKIITAKAVLKLQAGNAEEAALWRDLVRKVLASYLETAEEAVTLGGSLDENCQEVLKFATRENGFLLQYLVAIPMEKGLDSQGCFCAGCSRQIGFSFVRPKLCAFSGLYYCDICHQDDASVIPARIIHNWDLTKRPICRQALKFLTQIRAQPLINLQMVNASLYEHVERMHLIGRRREQLKLLGDYLGLCRSGALKELSKRLNHRNYLLESPHRFSVADLQQIADGVYEGFLKALIEFASQHVYHCDLCTQRGFICQICQHHDIIFPFEFDTTVRCAECKTVFHQSCQAVVKKGCPRCARRRKYQEQNIFA
**Q.** For B1, which “fold change of BRET50, CLN3-KO against wild-type HeLa cells” value is on record?
**A.** Its value is 3.5 fold.
